Assay results from the supplement of paper PMC7125110.
± gives the standard error. Fewer inactive variants are shown than the library holds.

B1: glmS ribozyme (parent)
chain: AUAAAAGCGCCAGAACUACAGAAAUGUAGUUGACGAGGAGGAGGUUUAUCGAAUUUUCGGCGGAUGCCUCCAAA

Legend:
Settings in all cases: with glucosamine-6-phosphate
glucosamine-6-phosphate [1] = variants of: B1; experiment: self-cleavage kobs at 40 uM GlcN6P; higher = faster cleavage; RNA array
Summary of the method: (§1)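 On sequenced MiSeq chips, barcoded ribozyme variants were made in situ by E. coli RNA polymerase and followed at 37 °C through a hybridised Cy3 probe. Glucosamine-6-phosphate was flowed in at 40 μM to 10 mM in HEPES/KCl/Mg(OAc)2 buffer. Exponential fits to normalised per-tile medians gave kobs, and weighted Michaelis–Menten fits gave kcat and KM.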

glucosamine-6-phosphate [2] = variants of: B1; experiment: self-cleavage kobs at 160 uM GlcN6P; higher = faster cleavage; RNA array
Summary of the method: as §1

glucosamine-6-phosphate [3] = variants of: B1; experiment: self-cleavage kobs at 640 uM GlcN6P; higher = faster cleavage; RNA array
Summary of the method: as §1

glucosamine-6-phosphate [4] = variants of: B1; experiment: self-cleavage kobs at 2500 uM GlcN6P; higher = faster cleavage; RNA array
Summary of the method: as §1

glucosamine-6-phosphate [5] = variants of: B1; experiment: self-cleavage kobs at 10000 uM GlcN6P; higher = faster cleavage; RNA array
Summary of the method: as §1

Row | Variant | self-cleavage kobs at 40 uM GlcN6P (glucosamine-6-phosphate [1]) [s⁻¹] | self-cleavage kobs at 160 uM GlcN6P (glucosamine-6-phosphate [2]) [s⁻¹] | self-cleavage kobs at 640 uM GlcN6P (glucosamine-6-phosphate [3]) [s⁻¹] | self-cleavage kobs at 2500 uM GlcN6P (glucosamine-6-phosphate [4]) [s⁻¹] | self-cleavage kobs at 10000 uM GlcN6P (glucosamine-6-phosphate [5]) [s⁻¹]
1 | U31G G38C | < 1e-05 | < 1e-05 | < 1e-05 | < 1e-05 | –
2 | A33C G44C U45C | < 1e-05 | – | < 1e-05 | – | < 1e-05
3 | U31C U45C C58A C61G C67G | < 1e-05 | – | – | – | < 1e-05
4 | A33G A42U | < 1e-05 | < 1e-05 | < 1e-05 | < 1e-05 | < 1e-05
5 | G32A G40U A42U G44C C67G | < 1e-05 | – | – | – | < 1e-05
6 | A33U G38C G40C U65A C70G | < 1e-05 | – | – | < 1e-05 | < 1e-05
7 | U31A A64G | 0.000322 ± 8.5e-05 | 0.000708 ± 0.0002 | 0.00331 ± 0.0006 | 0.00394 ± 0.0012 | 0.0255 ± 0.0096
8 | C34A C58U C71U | < 1e-05 | – | – | – | < 1e-05
9 | U31A U49C | < 1e-05 | < 1e-05 | < 1e-05 | < 1e-05 | < 1e-05
10 | A33U G43U C50G G51U | < 1e-05 | – | – | – | –
11 | A33U G51U | < 1e-05 | < 1e-05 | – | – | –
12 | C34G A52U U55A | < 1e-05 | – | – | < 1e-05 | < 1e-05
13 | U31G C61U | < 1e-05 | < 1e-05 | < 1e-05 | < 1e-05 | –
14 | C34A G44U | < 1e-05 | < 1e-05 | < 1e-05 | < 1e-05 | < 1e-05
15 | C34A G51A G63U C71U | < 1e-05 | – | – | – | < 1e-05
16 | C34A G60A C71A | < 1e-05 | – | – | – | < 1e-05
17 | U31A A36G | < 1e-05 | < 1e-05 | < 1e-05 | – | –
18 | G32C G63A | < 1e-05 | < 1e-05 | < 1e-05 | < 1e-05 | –
19 | U30G G44U U45C | < 1e-05 | – | – | – | < 1e-05
20 | G32C A36G | < 1e-05 | < 1e-05 | < 1e-05 | < 1e-05 | < 1e-05
21 | C34G A52C | < 1e-05 | < 1e-05 | < 1e-05 | < 1e-05 | < 1e-05

Row | Variant | self-cleavage kobs at 40 uM GlcN6P (glucosamine-6-phosphate [1]) [s⁻¹] | self-cleavage kobs at 160 uM GlcN6P (glucosamine-6-phosphate [2]) [s⁻¹] | self-cleavage kobs at 640 uM GlcN6P (glucosamine-6-phosphate [3]) [s⁻¹] | self-cleavage kobs at 2500 uM GlcN6P (glucosamine-6-phosphate [4]) [s⁻¹] | self-cleavage kobs at 10000 uM GlcN6P (glucosamine-6-phosphate [5]) [s⁻¹]
22 | C34G A42G U56G C67A | < 1e-05 | – | – | – | < 1e-05
23 | U31A G62C C70G | < 1e-05 | – | – | – | –
24 | U30G U45A A64C | < 1e-05 | – | – | – | 7e-05 ± 1.7e-05
25 | G32U A36G | < 1e-05 | < 1e-05 | < 1e-05 | < 1e-05 | < 1e-05
26 | U31G U56G | 0.000123 ± 2.1e-05 | 0.000145 ± 4e-05 | 0.000347 ± 8.2e-05 | 0.00132 ± 0.00034 | 0.00342 ± 0.00086
27 | U31A C71G | 4.17e-05 ± 1e-05 | 0.000162 ± 3.4e-05 | 0.000196 ± 3.4e-05 | 0.000225 ± 4.8e-05 | 0.000728 ± 0.00011
28 | U31A C71U | 0.000386 ± 3.4e-05 | 0.000552 ± 0.0001 | 0.00393 ± 0.00052 | 0.00846 ± 0.0018 | 0.0362 ± 0.0056
29 | A33U G40A A42C | < 1e-05 | < 1e-05 | < 1e-05 | < 1e-05 | < 1e-05
30 | A33U G37C | < 1e-05 | < 1e-05 | – | – | < 1e-05
31 | G32A G35A | < 1e-05 | < 1e-05 | < 1e-05 | < 1e-05 | < 1e-05
32 | A33U C58U C71A | < 1e-05 | – | < 1e-05 | < 1e-05 | –
33 | C34G A39C U46G | < 1e-05 | < 1e-05 | – | < 1e-05 | < 1e-05
34 | A33G G41C U47C | < 1e-05 | – | < 1e-05 | < 1e-05 | –
35 | G32C A42C C68A | < 1e-05 | – | < 1e-05 | – | –
36 | G32U G40C C61U C67A | < 1e-05 | – | – | – | –
37 | U31A G63A | < 1e-05 | – | – | – | < 1e-05
38 | U31A G63U | < 1e-05 | < 1e-05 | < 1e-05 | < 1e-05 | < 1e-05
39 | U31G C61U C67U | < 1e-05 | – | < 1e-05 | – | –
40 | A33G C50U | < 1e-05 | – | < 1e-05 | – | < 1e-05
41 | U31C G44U | < 1e-05 | < 1e-05 | – | – | 2.15e-05 ± 1e-05
42 | A33G A36U | < 1e-05 | < 1e-05 | – | < 1e-05 | < 1e-05

Row | Variant | self-cleavage kobs at 40 uM GlcN6P (glucosamine-6-phosphate [1]) [s⁻¹] | self-cleavage kobs at 160 uM GlcN6P (glucosamine-6-phosphate [2]) [s⁻¹] | self-cleavage kobs at 640 uM GlcN6P (glucosamine-6-phosphate [3]) [s⁻¹] | self-cleavage kobs at 2500 uM GlcN6P (glucosamine-6-phosphate [4]) [s⁻¹] | self-cleavage kobs at 10000 uM GlcN6P (glucosamine-6-phosphate [5]) [s⁻¹]
43 | G32U U65C | < 1e-05 | < 1e-05 | < 1e-05 | < 1e-05 | –
44 | U31C C34A C68U | < 1e-05 | – | – | – | < 1e-05
45 | U31G A33G | < 1e-05 | – | < 1e-05 | – | < 1e-05
46 | U31G A39G A53G | 0.000493 ± 0.00012 | – | 0.00385 ± 0.0009 | 0.0115 ± 0.0049 | –
47 | A33G G60C C61U | < 1e-05 | – | < 1e-05 | – | < 1e-05
48 | A33G A52U | < 1e-05 | – | < 1e-05 | – | < 1e-05
49 | C34A U54C | < 1e-05 | < 1e-05 | < 1e-05 | – | < 1e-05
50 | A33C C67U | < 1e-05 | < 1e-05 | < 1e-05 | – | –
51 | A33C C67G | < 1e-05 | < 1e-05 | – | – | < 1e-05
52 | U30G U69C | 0.000101 ± 2.9e-05 | – | 0.00045 ± 0.00019 | 6.49e-05 ± 3.1e-05 | 0.000535 ± 0.00011
53 | C34A C50G C68G | 0.000116 ± 2.4e-05 | – | – | – | 6.65e-05 ± 1.4e-05
54 | A33G U56G | < 1e-05 | – | < 1e-05 | – | < 1e-05
55 | A33U G41A C50A A53C G60C | < 1e-05 | – | – | – | < 1e-05
56 | G32C C67A | < 1e-05 | – | – | – | 2.83e-05 ± 9.7e-06
57 | A33G U54G U65G | < 1e-05 | – | – | – | < 1e-05
58 | U31G C70U | 0.000479 ± 7.2e-05 | 0.00104 ± 0.0002 | 0.0023 ± 0.00038 | 0.0117 ± 0.0029 | 0.0305 ± 0.0058
59 | A33U G38A G41C U54G | < 1e-05 | – | – | – | –
60 | U30G G60C | < 1e-05 | – | < 1e-05 | – | < 1e-05
61 | G32U G63A C67U | < 1e-05 | – | – | < 1e-05 | < 1e-05
62 | G32U G59A | < 1e-05 | < 1e-05 | < 1e-05 | – | –
63 | C34A U56C A64C | < 1e-05 | – | – | – | –

Row | Variant | self-cleavage kobs at 40 uM GlcN6P (glucosamine-6-phosphate [1]) [s⁻¹] | self-cleavage kobs at 160 uM GlcN6P (glucosamine-6-phosphate [2]) [s⁻¹] | self-cleavage kobs at 640 uM GlcN6P (glucosamine-6-phosphate [3]) [s⁻¹] | self-cleavage kobs at 2500 uM GlcN6P (glucosamine-6-phosphate [4]) [s⁻¹] | self-cleavage kobs at 10000 uM GlcN6P (glucosamine-6-phosphate [5]) [s⁻¹]
64 | G32A U54A C61G | < 1e-05 | – | < 1e-05 | – | < 1e-05
65 | U31A C50U | < 1e-05 | < 1e-05 | – | – | –
66 | A33U C67G C70U | < 1e-05 | – | – | – | –
67 | U31A A53G C61A | < 1e-05 | – | – | < 1e-05 | < 1e-05
68 | C34G A36U U46A A52G C71A | < 1e-05 | < 1e-05 | < 1e-05 | – | < 1e-05
69 | U31A U45C A48U | < 1e-05 | – | < 1e-05 | – | –
70 | U30G C61G | < 1e-05 | – | – | – | < 1e-05
71 | U30G C61U | < 1e-05 | – | < 1e-05 | < 1e-05 | –
72 | U30G C61A | < 1e-05 | – | – | – | < 1e-05
73 | A33U G41A | < 1e-05 | – | < 1e-05 | – | 4.33e-05 ± 9.1e-06
74 | U31G G35C G44U U54A | < 1e-05 | – | – | < 1e-05 | < 1e-05
75 | U31A G32U A36U G59A | < 1e-05 | – | – | – | < 1e-05
76 | A33C A52C C71A | < 1e-05 | – | < 1e-05 | < 1e-05 | –
77 | A33G U45A C71A | < 1e-05 | – | – | – | < 1e-05
78 | C34A U57C | < 1e-05 | < 1e-05 | – | < 1e-05 | < 1e-05
79 | U31A U47G C70U | 0.000179 ± 3.9e-05 | 0.000219 ± 4.3e-05 | 0.000928 ± 0.00014 | 0.000719 ± 0.00018 | 0.00277 ± 0.00063
80 | A33U U45G G51A | < 1e-05 | – | – | – | < 1e-05
81 | A33U A48C | < 1e-05 | < 1e-05 | < 1e-05 | < 1e-05 | < 1e-05
82 | A33G U46G G62C | < 1e-05 | – | < 1e-05 | < 1e-05 | –
83 | A33C A48G | < 1e-05 | < 1e-05 | < 1e-05 | – | < 1e-05
84 | G32A U47A | 0.000103 ± 2.6e-05 | 8.74e-05 ± 1.8e-05 | – | 0.000897 ± 0.00019 | 0.00237 ± 0.00046
